“And” between values parts separate entries of the source, which are not always exact repeats. Equal entries are not always repeated. Where two headings read alike, the source gives them in different places.
Key:
[1] = HPLC peptide recovery before and after freeze-drying
Procedure: The composition prepared as described in Example 4, containing 14 neoantigens and the A16L T-helper peptide, was subjected to HPLC analysis to evaluate the peptide stability before and after freeze-drying.
Experimental Conditions: • IPQC Solutions: Dilute the IPQC solutions with Methanol and then with Mobile Phase A, e.g. as follows: • 100 mg In-Process Testing Solution • +450 μL Methanol, mix • +450 μL Mobile Phase A, mix • Mix by vortexing. Samples containing lipids will be slightly hazy. Dilution factor=10×. • Lyophilisates (for Release and Stability Testing): Solubilize the lyophilisate with Ultrapure lab water. Add 3-4 glass beads and vortex vigorously for 1 minute to assure complete homogenization. Dilute the solution with Methanol and subsequently with Mobile Phase A, e.g. as follows: • 100 mg In-Process Testing Solution • +450 μL Methanol, mix • +450 μL Mobile Phase A, mix • Mix by vortexing. The sample preparations will be slightly hazy. Dilution factor=20×.
The dried preparations were solubilized in water for HPLC analysis. T=0 is the day in which the samples were removed from the freeze-dryer. T=1M and T=3M are 1 month and 3 months after T=0, respectively, with the dried preparation having been stored at −20° C.

C57BL/6NCrl mice = test: IFN-gamma ELISPOT of splenocytes eight days after single vaccination; assay type: in vivo; details: oil-based composition with 14 neoantigens, single administration, response to the named neoantigen
[2] = After freeze dry T = 1M, stored at −20° C.
[3] = After freeze dry T = 3M, stored at −20° C.

CGTAFFINFIAIYHHASRAIPFGTMVA (Mut36) [Mut 36]
Amount from non-validated HPLC assay ([1]; After freeze dry T = 0): 0.19 mg/mL
Amount from non-validated HPLC assay [1, 2]: 0.25 mg/mL
Amount from non-validated HPLC assay [1, 3]: 0.31 mg/mL
Amount from non-validated HPLC assay ([1]; Before freeze dry): 0.47 mg/mL

ECRITSNFVIPSEYWVEEKEEKQKLIQ (Mut45) [Mut 45]
Amount from non-validated HPLC assay ([1]; After freeze dry T = 0): 0.44 mg/mL
Amount from non-validated HPLC assay [1, 2]: 0.42 mg/mL
Amount from non-validated HPLC assay [1, 3]: 0.46 mg/mL
Amount from non-validated HPLC assay ([1]; Before freeze dry): 0.47 mg/mL

EFKHIKAFDRTFANNPGPMVVFATPGM (Mut44) [Mut 44]
Improvement of immune response over comparative aqueous composition (C57BL/6NCrl mice): about 3 fold
Amount from non-validated HPLC assay ([1]; After freeze dry T = 0): 0.47 mg/mL
Amount from non-validated HPLC assay [1, 2]: 0.44 mg/mL
Amount from non-validated HPLC assay [1, 3]: 0.50 mg/mL
Amount from non-validated HPLC assay ([1]; Before freeze dry): 0.51 mg/mL

FRRKAFLHWYTGEAMDEMEFTEAESNM [Mut 20]
Amount from non-validated HPLC assay [1]: 0.41 mg/mL and 0.47 mg/mL and 0.54 mg/mL and 0.42 mg/mL

GFSQPLRRLVLHVVSAAQAERLARAEE (Mut50) [Mut 50]
Amount from non-validated HPLC assay ([1]; After freeze dry T = 0): 0.42 mg/mL
Amount from non-validated HPLC assay [1, 2]: 0.44 mg/mL
Amount from non-validated HPLC assay [1, 3]: 0.46 mg/mL
Amount from non-validated HPLC assay ([1]; Before freeze dry): 0.42 mg/mL

IPSGTTILNCFHDVLSGKLSGGSPGVP (Mut29A) [Mut 29a]
Amount from non-validated HPLC assay ([1]; After freeze dry T = 0): 0.38 mg/mL
Amount from non-validated HPLC assay [1, 2]: 0.34 mg/mL
Amount from non-validated HPLC assay [1, 3]: 0.35 mg/mL
Amount from non-validated HPLC assay ([1]; Before freeze dry): 0.54 mg/mL

NIEGIDKLTQLKKPFLVNNKINKIENI (Mut28) [Mut 28]
Amount from non-validated HPLC assay ([1]; After freeze dry T = 0): 0.50 mg/mL
Amount from non-validated HPLC assay [1, 2]: 0.50 mg/mL
Amount from non-validated HPLC assay [1, 3]: 0.51 mg/mL
Amount from non-validated HPLC assay ([1]; Before freeze dry): 0.53 mg/mL

PKPDFSQLQRNILPSNPRVTRFHINWD (Mut22) [Mut 22]
Amount from non-validated HPLC assay ([1]; After freeze dry T = 0): 0.51 mg/mL
Amount from non-validated HPLC assay [1, 2]: 0.47 mg/mL
Amount from non-validated HPLC assay [1, 3]: 0.54 mg/mL
Amount from non-validated HPLC assay ([1]; Before freeze dry): 0.54 mg/mL

PSKPSFQEFVDWENVSPELNSTDQPFL (Mut30) [Mut 30]
Amount from non-validated HPLC assay ([1]; After freeze dry T = 0): 0.51 mg/mL
Amount from non-validated HPLC assay [1, 2]: 0.51 mg/mL
Amount from non-validated HPLC assay [1, 3]: 0.56 mg/mL
Amount from non-validated HPLC assay ([1]; Before freeze dry): 0.53 mg/mL

SFACLRQPSQGPTVGVKGGAAGGGYAQ (Mut29B) [Mut 29b]
Amount from non-validated HPLC assay ([1]; After freeze dry T = 0): 0.48 mg/mL
Amount from non-validated HPLC assay [1, 2]: 0.44 mg/mL
Amount from non-validated HPLC assay [1, 3]: 0.48 mg/mL
Amount from non-validated HPLC assay ([1]; Before freeze dry): 0.56 mg/mL

SHCHWNDLAVIPAGVVHNWDFEPRKVS (Mut48) [Mut 48]
Amount from non-validated HPLC assay ([1]; After freeze dry T = 0): 0.38 mg/mL
Amount from non-validated HPLC assay [1, 2]: 0.37 mg/mL
Amount from non-validated HPLC assay [1, 3]: 0.41 mg/mL
Amount from non-validated HPLC assay ([1]; Before freeze dry): 0.47 mg/mL

STANYNTSHLNNDVWQIFENPVDWKEK (Mut25) [Mut 25]
Improvement of immune response over comparative aqueous composition (C57BL/6NCrl mice): about 5 fold
Amount from non-validated HPLC assay ([1]; After freeze dry T = 0): 0.54 mg/mL
Amount from non-validated HPLC assay [1, 2]: 0.50 mg/mL
Amount from non-validated HPLC assay [1, 3]: 0.56 mg/mL
Amount from non-validated HPLC assay ([1]; Before freeze dry): 0.56 mg/mL

TAVITPPTTTTKKARVSTPKPATPSTD (Mut24) [Mut 24]
Amount from non-validated HPLC assay ([1]; After freeze dry T = 0): 0.44 mg/mL
Amount from non-validated HPLC assay [1, 2]: 0.38 mg/mL
Amount from non-validated HPLC assay [1, 3]: 0.37 mg/mL
Amount from non-validated HPLC assay ([1]; Before freeze dry): 0.56 mg/mL

VVDRNPQFLDPVLAYLMKGLCEKPLAS (Mut17) [Mut 17]
Amount from non-validated HPLC assay ([1]; After freeze dry T = 0): 0.27 mg/mL
Amount from non-validated HPLC assay [1, 2]: 0.23 mg/mL
Amount from non-validated HPLC assay [1, 3]: 0.26 mg/mL
Amount from non-validated HPLC assay ([1]; Before freeze dry): 0.51 mg/mL
